± gives the uncertainty stated by the source.
B1: Zinc finger MYM-type protein 6, residues 427 to 504; numbered along this chain, O95789 (parent)
chain: KLKCQHCNHLFATKPELLFYKGKMFLFCGKNCSDEYKKKNKVVAMCDYCKLQKIIKETVRFSGVDKPFCSEVCKFLSA

Variants of: B1
Assay: abundance fitness (aPCA) (normalised: wild type 0, dead -1); higher = more abundant; growth selection in yeast, the domain comes from the species named
Conditions: Homo sapiens
For KLKCQHCNHLFATWPELLFYKGKMFLFCGKNCSDEYKKKNKVVAMCDYCKLQKIIKETVRFSGVDKPFCSEVCKFLSA [K14W], the abundance fitness was -0.408 ± 0.056. Work on KLKCQHCNHLFATYPELLFYKGKMFLFCGKNCSDEYKKKNKVVAMCDYCKLQKIIKETVRFSGVDKPFCSEVCKFLSA [K14Y] yielded an abundance fitness of -0.492 ± 0.11. KLKCQHCNHLFATKAELLFYKGKMFLFCGKNCSDEYKKKNKVVAMCDYCKLQKIIKETVRFSGVDKPFCSEVCKFLSA [P15A] showed an abundance fitness of -0.075 ± 0.03. KLKCQHCNHLFATKDELLFYKGKMFLFCGKNCSDEYKKKNKVVAMCDYCKLQKIIKETVRFSGVDKPFCSEVCKFLSA [P15D] gave an abundance fitness of -0.03 ± 0.041. KLKCQHCNHLFATKEELLFYKGKMFLFCGKNCSDEYKKKNKVVAMCDYCKLQKIIKETVRFSGVDKPFCSEVCKFLSA [P15E] gave an abundance fitness of -0.083 ± 0.043. KLKCQHCNHLFATKFELLFYKGKMFLFCGKNCSDEYKKKNKVVAMCDYCKLQKIIKETVRFSGVDKPFCSEVCKFLSA [P15F] showed an abundance fitness of -0.478 ± 0.085. Variant KLKCQHCNHLFATKGELLFYKGKMFLFCGKNCSDEYKKKNKVVAMCDYCKLQKIIKETVRFSGVDKPFCSEVCKFLSA [P15G] has an abundance fitness of -0.163 ± 0.029. With KLKCQHCNHLFATKHELLFYKGKMFLFCGKNCSDEYKKKNKVVAMCDYCKLQKIIKETVRFSGVDKPFCSEVCKFLSA [P15H] the abundance fitness was -0.213 ± 0.039. For KLKCQHCNHLFATKIELLFYKGKMFLFCGKNCSDEYKKKNKVVAMCDYCKLQKIIKETVRFSGVDKPFCSEVCKFLSA [P15I], the abundance fitness was -0.412 ± 0.16. With KLKCQHCNHLFATKKELLFYKGKMFLFCGKNCSDEYKKKNKVVAMCDYCKLQKIIKETVRFSGVDKPFCSEVCKFLSA [P15K] the abundance fitness was -0.038 ± 0.039. KLKCQHCNHLFATKLELLFYKGKMFLFCGKNCSDEYKKKNKVVAMCDYCKLQKIIKETVRFSGVDKPFCSEVCKFLSA [P15L] showed an abundance fitness of -0.483 ± 0.05. In the case of KLKCQHCNHLFATKMELLFYKGKMFLFCGKNCSDEYKKKNKVVAMCDYCKLQKIIKETVRFSGVDKPFCSEVCKFLSA [P15M], the abundance fitness is reported as -0.335 ± 0.056. KLKCQHCNHLFATKQELLFYKGKMFLFCGKNCSDEYKKKNKVVAMCDYCKLQKIIKETVRFSGVDKPFCSEVCKFLSA [P15Q] showed an abundance fitness of -0.126 ± 0.049. KLKCQHCNHLFATKRELLFYKGKMFLFCGKNCSDEYKKKNKVVAMCDYCKLQKIIKETVRFSGVDKPFCSEVCKFLSA [P15R] showed an abundance fitness of -0.119 ± 0.029. Work on KLKCQHCNHLFATKSELLFYKGKMFLFCGKNCSDEYKKKNKVVAMCDYCKLQKIIKETVRFSGVDKPFCSEVCKFLSA [P15S] yielded an abundance fitness of -0.119 ± 0.05. For KLKCQHCNHLFATKTELLFYKGKMFLFCGKNCSDEYKKKNKVVAMCDYCKLQKIIKETVRFSGVDKPFCSEVCKFLSA [P15T], the abundance fitness was -0.132 ± 0.045. In the case of KLKCQHCNHLFATKVELLFYKGKMFLFCGKNCSDEYKKKNKVVAMCDYCKLQKIIKETVRFSGVDKPFCSEVCKFLSA [P15V], the abundance fitness is reported as -0.37 ± 0.037. KLKCQHCNHLFATKWELLFYKGKMFLFCGKNCSDEYKKKNKVVAMCDYCKLQKIIKETVRFSGVDKPFCSEVCKFLSA [P15W] gave an abundance fitness of -0.534 ± 0.041. For KLKCQHCNHLFATKYELLFYKGKMFLFCGKNCSDEYKKKNKVVAMCDYCKLQKIIKETVRFSGVDKPFCSEVCKFLSA [P15Y], the abundance fitness was -0.651 ± 0.2. With KLKCQHCNHLFATKPALLFYKGKMFLFCGKNCSDEYKKKNKVVAMCDYCKLQKIIKETVRFSGVDKPFCSEVCKFLSA [E16A] the abundance fitness was -0.091 ± 0.031. With KLKCQHCNHLFATKPCLLFYKGKMFLFCGKNCSDEYKKKNKVVAMCDYCKLQKIIKETVRFSGVDKPFCSEVCKFLSA [E16C] the abundance fitness was -0.102 ± 0.045. With KLKCQHCNHLFATKPDLLFYKGKMFLFCGKNCSDEYKKKNKVVAMCDYCKLQKIIKETVRFSGVDKPFCSEVCKFLSA [E16D] the abundance fitness was -0.169 ± 0.12. KLKCQHCNHLFATKPGLLFYKGKMFLFCGKNCSDEYKKKNKVVAMCDYCKLQKIIKETVRFSGVDKPFCSEVCKFLSA [E16G] showed an abundance fitness of -0.279 ± 0.031. For KLKCQHCNHLFATKPHLLFYKGKMFLFCGKNCSDEYKKKNKVVAMCDYCKLQKIIKETVRFSGVDKPFCSEVCKFLSA [E16H], the abundance fitness was -0.307 ± 0.19. Work on KLKCQHCNHLFATKPKLLFYKGKMFLFCGKNCSDEYKKKNKVVAMCDYCKLQKIIKETVRFSGVDKPFCSEVCKFLSA [E16K] yielded an abundance fitness of 0.002 ± 0.032. With KLKCQHCNHLFATKPLLLFYKGKMFLFCGKNCSDEYKKKNKVVAMCDYCKLQKIIKETVRFSGVDKPFCSEVCKFLSA [E16L] the abundance fitness was -0.139 ± 0.036. For KLKCQHCNHLFATKPMLLFYKGKMFLFCGKNCSDEYKKKNKVVAMCDYCKLQKIIKETVRFSGVDKPFCSEVCKFLSA [E16M], the abundance fitness was -0.14 ± 0.044. In the case of KLKCQHCNHLFATKPNLLFYKGKMFLFCGKNCSDEYKKKNKVVAMCDYCKLQKIIKETVRFSGVDKPFCSEVCKFLSA [E16N], the abundance fitness is reported as -0.26 ± 0.094. Work on KLKCQHCNHLFATKPPLLFYKGKMFLFCGKNCSDEYKKKNKVVAMCDYCKLQKIIKETVRFSGVDKPFCSEVCKFLSA [E16P] yielded an abundance fitness of -0.414 ± 0.045. In the case of KLKCQHCNHLFATKPQLLFYKGKMFLFCGKNCSDEYKKKNKVVAMCDYCKLQKIIKETVRFSGVDKPFCSEVCKFLSA [E16Q], the abundance fitness is reported as -0.03 ± 0.041. With KLKCQHCNHLFATKPRLLFYKGKMFLFCGKNCSDEYKKKNKVVAMCDYCKLQKIIKETVRFSGVDKPFCSEVCKFLSA [E16R] the abundance fitness was -0.102 ± 0.029. With KLKCQHCNHLFATKPSLLFYKGKMFLFCGKNCSDEYKKKNKVVAMCDYCKLQKIIKETVRFSGVDKPFCSEVCKFLSA [E16S] the abundance fitness was -0.146 ± 0.043. KLKCQHCNHLFATKPTLLFYKGKMFLFCGKNCSDEYKKKNKVVAMCDYCKLQKIIKETVRFSGVDKPFCSEVCKFLSA [E16T] showed an abundance fitness of -0.037 ± 0.046. With KLKCQHCNHLFATKPVLLFYKGKMFLFCGKNCSDEYKKKNKVVAMCDYCKLQKIIKETVRFSGVDKPFCSEVCKFLSA [E16V] the abundance fitness was -0.109 ± 0.034. For KLKCQHCNHLFATKPWLLFYKGKMFLFCGKNCSDEYKKKNKVVAMCDYCKLQKIIKETVRFSGVDKPFCSEVCKFLSA [E16W], the abundance fitness was -0.13 ± 0.031.

— the Human Domainome abundance scans (Beltran et al. 2025)
